{"source": "paper PMC5663514", "about": "“Biochemical characterization of Borrelia burgdorferi’s RecA protein”", "target": "T1, B. burgdorferi RecA (Borrelia burgdorferi B31, UniProt Q59180 1-365)", "T1 sequence": "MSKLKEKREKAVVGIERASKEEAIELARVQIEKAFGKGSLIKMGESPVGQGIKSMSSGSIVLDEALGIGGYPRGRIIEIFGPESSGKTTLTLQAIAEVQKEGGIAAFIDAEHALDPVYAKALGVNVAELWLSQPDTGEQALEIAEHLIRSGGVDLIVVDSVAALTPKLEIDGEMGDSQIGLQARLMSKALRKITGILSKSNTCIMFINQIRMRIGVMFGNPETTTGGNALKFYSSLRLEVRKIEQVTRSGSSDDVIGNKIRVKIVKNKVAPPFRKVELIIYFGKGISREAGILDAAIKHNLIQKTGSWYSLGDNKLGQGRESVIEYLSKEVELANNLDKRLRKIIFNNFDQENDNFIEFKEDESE", "assay": "EMSA with glutaraldehyde protein-protein crosslinking; 2 mM Mg2+, 2 mM ATP; affinity increased by ATP, discrete shift and well shifts; 25 mM HEPES pH 7.6, 2 mM MgCl2, 1 mM DTT, 50 mM NaCl, +/- 2 mM ATP; 10 nM DNA molecules; 30°C 5 min, then 0.033% glutaraldehyde 5 min at 20°C/room temperature", "settings": "protein: recombinant; tags: His tag (pET15b NdeI/BamHI, Ni-NTA; N-terminal implied, removal not mentioned); single strand"}
{"binder": "OGCB396 95 nt ssDNA (ssDNA) DNA: TGCAGGCATGCAAGCTTGGCGTAATCATGGTCATAGCTGTTTCCTGTGTGAAATTGTTATCCGCTCACAATTCCACACAACATACGAGCCGGAAG", "values": [{"measurement": "binding result", "result": "binds"}]}
